Measured values published in US20250270304A1 (PHENOMIC AI, published 2025).

T1: Latent Activin A (human, UniProt P08476 21-426, limits assumed)
T1 construct: also called INHBA latent
T1 sequence: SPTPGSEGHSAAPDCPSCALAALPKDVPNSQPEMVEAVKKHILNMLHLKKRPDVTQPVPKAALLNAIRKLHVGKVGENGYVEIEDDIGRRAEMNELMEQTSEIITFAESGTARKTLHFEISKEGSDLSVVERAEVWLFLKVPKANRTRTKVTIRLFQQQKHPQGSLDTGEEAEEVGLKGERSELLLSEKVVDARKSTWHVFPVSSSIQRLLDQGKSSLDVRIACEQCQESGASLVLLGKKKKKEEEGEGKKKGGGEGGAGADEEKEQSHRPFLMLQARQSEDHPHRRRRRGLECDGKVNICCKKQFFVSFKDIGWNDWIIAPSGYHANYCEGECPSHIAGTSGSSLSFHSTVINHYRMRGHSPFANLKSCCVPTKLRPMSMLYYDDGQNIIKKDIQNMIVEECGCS

T2: Mature Activin A (human, UniProt P08476 311-426)
T2 construct: also called active Activin A; INHBA mature
T2 sequence: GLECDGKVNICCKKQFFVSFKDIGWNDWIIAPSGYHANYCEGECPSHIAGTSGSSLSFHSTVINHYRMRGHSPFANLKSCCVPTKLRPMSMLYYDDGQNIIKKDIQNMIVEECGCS

T3: Activin B (Homo sapiens (Human), UniProt P09529 293-407)
T3 construct: also called Mature Activin B; mature Activin B
T3 sequence: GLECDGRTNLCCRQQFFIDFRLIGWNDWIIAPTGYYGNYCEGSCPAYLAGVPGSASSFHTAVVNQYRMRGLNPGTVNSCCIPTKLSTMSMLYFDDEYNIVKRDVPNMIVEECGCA

T4: Inhibin A (Homo sapiens (Human), UniProt P05111 233-366; P08476 311-426)
T4 sequence 1: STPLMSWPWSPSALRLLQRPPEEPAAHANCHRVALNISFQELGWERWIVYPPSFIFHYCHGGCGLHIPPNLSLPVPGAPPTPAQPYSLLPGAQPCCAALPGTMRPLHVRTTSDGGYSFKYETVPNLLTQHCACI
T4 sequence 2: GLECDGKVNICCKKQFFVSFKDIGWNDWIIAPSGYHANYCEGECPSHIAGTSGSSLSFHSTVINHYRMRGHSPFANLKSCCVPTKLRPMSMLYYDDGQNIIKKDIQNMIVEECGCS


Legend:
Experiment in all cases: ELISA, coated antigen, OD450
Latent Activin A = target: T1, Latent Activin A
Method: (§1) Antibodies were re-expressed in 40 mL cultures of Expi293 cells and purified using protein G magnetic sepharose beads (Cytiva, Marlborough, MA) to provide larger quantities for secondary screening. Secondary screening included dose responses in both functional assays described above (SMAD nuclear localization and fibroblast activations assays) as well as in binding assays to the same antigens listed in Table 3. Plates were coated with 25 μL of 3 μg/mL antigen in 384-well Maxisorp plates overnight at 4° C. with agitation. The next day, the samples in the plates were blocked with 70 μL blocking buffer (PBS+1% BSA+0.1% Tween-20) for 2 hours at room temperature. Plates were then washed three times with 100 μL of wash buffer (PBS+0.1% Tween-20). Primary antibodies in Expi293 expression medium were diluted 1:3 in blocking buffer, 25 μL added per well, and the plates were incubated for an hour at room temperature with agitation. Plates were then washed three times and 25 μL of secondary antibody (goat anti-Human IgG, HRP conjugated; Jackson Immunoresearch) diluted 1:5000 in blocking buffer was added for 30 minutes at room temperature. The wells in the plates were washed six times with wash buffer and TMB substrate was added followed by 1 M H3PO4.

Mature Activin A = target: T2, Mature Activin A
Method: as §1

Activin B = target: T3, Activin B
Method: as §1

Inhibin A = target: T4, Inhibin A
Method: as §1

Row | Binder | fold-change of OD 450 over negative control (BSA) (Latent Activin A) | fold-change of OD 450 over negative control (BSA) (Mature Activin A) | fold-change of OD 450 over negative control (BSA) (Activin B) | fold-change of OD 450 over negative control (BSA) (Inhibin A)
1 | AB366 (antibody, IgG1, V domains shown) VH: QVQLQESGPGLVKPSQTLSLTCTVSGYSLTDARIGVNWIRQPPGKGLEWIGYINPSGRTDYNPSLKSRVTMSVDTSKNQFSLKVNSVTAADTAVYYCARAGYPDVWGKGTTVTVSS VL: DIQMTQSPSSVSASVGDRVTITCRASQTISRSLAWYQQKPGKAPKLLIYDASSLAGGVPSRFSGSGSGTDFTLTISSLQPEDFANYYCQQYSSYPSLFGGGTKVEIK | 10.3 fold | 13.1 fold | 0.86 fold | 0.72 fold
2 | AB349 (antibody, IgG1, V domains shown) VH: QVQLQESGPGLVKPSQTLSLTCTVSGVSLSNARLGVNWIRQPPGKGLEWIGYGSVTGSTDYNPSLKSRVTMSVDTSKNQFSLKVNSVTAADTAVYYCTTSYLVDTAMVTRWGQGTLVTVSS VL: EIVMTQSPATLSLSPGERATLSCRASQRIGSDLAWYQQKPGQAPRLLIYSASSRAPGIPARFSGSGSGTDFTLTISSLEPEDFAVYYCSTMAIPFGGGTKVEIK | 4.34 fold | 5.14 fold | 0.27 fold | 0.22 fold
3 | AB344 (antibody, IgG1, V domains shown) VH: EVQLVESGGGLVQPGGSLRLSCAASGYTFSNYGMSWVRQAPGKGLELVASISKSGSSIYYPDSVKGRFTISRDNAKNSLYLQMNSLRAEDTAVYYCARLPRLAWNYYYGMDVWGQGTTVTVSS VL: DIVMTQSPLSLPVTPGEPASISCRSSRSLVHGSGDNYLHWYLQKPGQSPQLLIYMASNRAPGVPDRFSGSGSGTDFTLKISRVEAEDVGVYYCVQTLQTPSTFGGGTKVEIK | 2.35 fold | 3.18 fold | 0.75 fold | 1.18 fold
4 | AB341 (antibody, IgG1, V domains shown) VH: EVQLVESGGGLVQPGGSLRLSCAASGYTFSNYGMSWVRQAPGKGLELVASISKSGSSIYYPDSVKGRFTISRDNAKNSLYLQMNSLRAEDTAVYYCARLPRLAWNYYYGMDVWGQGTTVTVSS VL: DIVMTQSPLSLPVTPGEPASISCRSSQSLLHSNEKNYLHWYLQKPGQSPQLLIYDASKRASGVPDRFSGSGSGTDFTLKISRVEAEDVGVYYCVQDLHTPFTFGGGTKVEIK | 4.09 fold | 6.71 fold | 0.98 fold | 0.81 fold
5 | AB330 (antibody, IgG1, V domains shown, also called mAb 330) VH: QVQLVQSGAEVKKPGASVKVSCKVSGYPSPATISWVRQAPGKGLEWMGWMNPKSGYTNYAQKFQGRVTMTEDTSTDTAYMELSSLKSEDTAVYYCATLHGSGLAFDIWGQGTMVTVSS VL: DIQMTQSPSSVSASVGDRVTITCRASQDIKSDLAWYQQKPGKAPKLLIYRASARESGVPSRFSGSGSGTDFTLTISSLQPEDFANYYCQQYRSFPWSFGGGTKVEIK | 0.75 fold | – | 0.61 fold | 0.97 fold
6 | AB345 (antibody, IgG1, V domains shown) VH: EVQLVESGGGLVQPGGSLRLSCAASGFTSSGYWMSWFRQAPGKGLELVASIGTAGVTYYPDSVKGRFTISRDNAKNSLYLQMNSLRAEDTAVYYCARGPHGPQQRLRFDPWGQGTLVTVSS VL: DIVMTQSPLSLPVTPGEPASISCRSSQSLLSSYGYHNLHWYLQKPGQSPQLLIYMGSIRAPGVPDRFSGSGSGTDFTLKISRVEAEDVGVYYCMQGTQAPRTFGGGTKVEIK | 8.12 fold | 9.47 fold | 0.76 fold | 3.43 fold

Further lines, results first:

Row | fold-change of OD 450 over negative control (BSA) (Latent Activin A) | fold-change of OD 450 over negative control (BSA) (Mature Activin A) | fold-change of OD 450 over negative control (BSA) (Activin B) | fold-change of OD 450 over negative control (BSA) (Inhibin A) | Binder
7 | 2.74 fold | 3.34 fold | 0.69 fold | 0.77 fold | AB448 (antibody, IgG1, V domains shown) VH: QVQLQESGPGLVKPSQTLSLTCTVSGLSLSNAKMGVNWIRQPPGKGLEWIGYVSTTGTTDYNPSLKSRVTMSVDTSKNQFSLKVNSVTAADTAVYYCARAGYPDVWGKGTTVTVSS VL: DIQMTQSPSSVSASVGDRVTITCRASQNIGAALAWYQQKPGKAPKLLIYGASTREYGVPSRFSGSGSGTDFTLTISSLQPEDFANYYCQQYTAYPLTFGGGTKVEIK
8 | 2.34 fold | 2.83 fold | 0.15 fold | 0.23 fold | AB438 (antibody, IgG1, V domains shown) VH: QVQLQESGPGLVKPSQTLSLTCTVSGVSLSNARLGVNWIRQPPGKGLEWIGYGSVTGSTDYNPSLKSRVTMSVDTSKNQFSLKVNSVTAADTAVYYCTTSYLVDTAMVTRWGQGTLVTVSS VL: EIVMTQSPATLSLSPGERATLSCRASQSLGTNLAWYQQKPGQAPRLLIYGASSRPSGIPARFSGSGSGTDFTLTISSLEPEDFAVYYCQQYDTHPLSFGGGTKVEIK
9 | 5.93 fold | 6.34 fold | 0.72 fold | 3.09 fold | AB428 (antibody, IgG1, V domains shown) VH: EVQLVESGGGLVQPGGSLRLSCAASGFTSSNHWMSWVRQAPGKGLELVASIGPKGLGTYYPDSVKGRFTISRDNAKNSLYLQMNSLRAEDTAVYYCASIRDYGDKKGGSWFDPWGQGTLVTVSS VL: DIVMTQSPLSLPVTPGEPASISCRSSQSLLHSSGYNFLHWYLQKPGQSPQLLIYMATNRASGVPDRFSGSGSGTDFTLKISRVEAEDVGVYYCVQDLHTLPQFGGGTKVEIK
10 | 4.81 fold | 4.66 fold | 0.51 fold | 4.84 fold | AB426 (antibody, IgG1, V domains shown) VH: EVQLVESGGGLVQPGGSLRLSCAASGFTFSDHHMSWVRQAPGKGLELVASISPSGDFTYYPDSVKGRFTISRDNAKNSLYLQMNSLRAEDTAVYYCARDVSPVYYWGQGALVTVSS VL: DIVMTQSPLSLPVTPGEPASISCRSSQSLLHWYLQKPGQSPQLLIYMGSQRAAGVPDRFSGSGSGTDFTLKISRVEAEDVGVYYCQSGVTFGGGTKVEIK
11 | 1 fold | 1.04 fold | 0.96 fold | 1.13 fold | AB431 (antibody, IgG1, V domains shown, also called mAb 431) VH: EVQLVESGGGLVQPGGSLRLSCAASGFTSSNHWMSWVRQAPGKGLELVASIGPKGLGTYYPDSVKGRFTISRDNAKNSLYLQMNSLRAEDTAVYYCARDVRGWRALYYYYGMDVWGQGTTVTVSS VL: DIVMTQSPLSLPVTPGEPASISCRSSQSLLHVTGYNYLHWYLQKPGQSPQLLIYGASSRAAGVPDRFSGSGSGTDFTLKISRVEAEDVGVYYCMQSTQWPHTFGGGTKVEIK
12 | 1.45 fold | 1.45 fold | – | – | AB439 (antibody, IgG1, V domains shown) VH: EVQLVQSGAEVKKPGASVKVSCKASGYTYTGYRISWVRQAPGQGLEWMGWIDPKSGRTNYAQKLQGRGTMTTDPSTSTAYMELRSLRSDDTAVYYCAREVKQWLVPGRGVYWFDPWGQGTLVTVSS VL: ESALTQPASVSGSPGQSITISCTGTNIGLRSVSWYQQHPGKAPKLMIYDTNIRSSGVSNRFSGSKSGNTASLTISGLQAEDEADYYCSSYTSSSTDVFGGGTKLTVL
13 | 7.44 fold | 7.58 fold | 0.51 fold | 0.86 fold | AB430 (antibody, IgG1, V domains shown) VH: EVQLVESGGGLVQPGGSLRLSCAASGFTLSNYPMSWVRQAPGKGLELVASTTSGSSTIYYPDSVKGRFTISRDNAKNSLYLQMNSLRAEDTAVYYCARGPDYYAPLRSYMDVWGKGTTVTVSS VL: DIVMTQSPLSLPVTPGEPASISCRSSQSLQQSEGRTYLHWYLQKPGQSPQLLIYDASKRASGVPDRFSGSGSGTDFTLKISRVEAEDVGVYYCMQVLRTPITFGGGTKVEIK
